# Measurements published in patent US20240358755A1 (IMMATICS BIOTECHNOLOGIES, published 2024).
# B1: RLCPAAPTGK (peptide)
# peptide: RLCPAAPTGK
# B2: ILAPPAILK (peptide)
# peptide: ILAPPAILK
# B3: TTLENLPQK (peptide)
# peptide: TTLENLPQK
# B4: MTYQQPFSNR (peptide)
# peptide: MTYQQPFSNR
# B5: LIAGLIFLK (peptide)
# peptide: LIAGLIFLK
# B6: TVATQVATSK (peptide)
# peptide: TVATQVATSK
# B7: MIFSGVFLR (peptide)
# peptide: MIFSGVFLR
# B8: AVLGALLRH (peptide)
# peptide: AVLGALLRH
# B9: SLIPIVPFKS (peptide)
# peptide: SLIPIVPFKS
# B10: MPANFETIGF (peptide)
# peptide: MPANFETIGF
# B11: SLFPYFLNK (peptide)
# peptide: SLFPYFLNK
# B12: MLSAQFILK (peptide)
# peptide: MLSAQFILK
# B13: AVFVNWEQTKK (peptide)
# peptide: AVFVNWEQTKK
# B14: SVYMATTLK (peptide)
# peptide: SVYMATTLK
# B15: KVGAVVHLK (peptide)
# peptide: KVGAVVHLK
# B16: AVDLGVLEL (peptide)
# peptide: AVDLGVLEL
# B17: VIFLHQPPK (peptide)
# peptide: VIFLHQPPK
# B18: APQPRSLAA (peptide)
# peptide: APQPRSLAA
# B19: GSCSFALSR (peptide)
# peptide: GSCSFALSR
# B20: SVFSLVHLFDK (peptide)
# peptide: SVFSLVHLFDK
# B21: LPTRSLPAF (peptide)
# peptide: LPTRSLPAF
# B22: ILQLITVNR (peptide)
# peptide: ILQLITVNR
# B23: ALAQGANLK (peptide)
# peptide: ALAQGANLK
# B24: ASAIPAGAK (peptide)
# peptide: ASAIPAGAK
# B25: SLFGGLFTR (peptide)
# peptide: SLFGGLFTR
# B26: RILEVVRQPK (peptide)
# peptide: RILEVVRQPK
# B27: KLIAGLIFLK (peptide)
# peptide: KLIAGLIFLK
# B28: SMNSKALRWK (peptide)
# peptide: SMNSKALRWK
# B29: RIVTYIVAK (peptide)
# peptide: RIVTYIVAK
# B30: RTLPLEGSPK (peptide)
# peptide: RTLPLEGSPK
# B31: VVRASSGLK (peptide)
# peptide: VVRASSGLK
# B32: IVFLLQQGEK (peptide)
# peptide: IVFLLQQGEK
# B33: KIMEILNLK (peptide)
# peptide: KIMEILNLK
# B34: GVCSTLTIK (peptide)
# peptide: GVCSTLTIK
# B35: KTIDLVIVR (peptide)
# peptide: KTIDLVIVR
# B36: MTFVPLLAR (peptide)
# peptide: MTFVPLLAR
# B37: LSGPVTFLR (peptide)
# peptide: LSGPVTFLR
# B38: KVLVDFLLK (peptide)
# peptide: KVLVDFLLK
# B39: SPVETRSLL (peptide)
# peptide: SPVETRSLL
# B40: TLLSFKTVLFK (peptide)
# peptide: TLLSFKTVLFK
# B41: AILLPQLPK (peptide)
# peptide: AILLPQLPK
# B42: AVFLGNPSNQK (peptide)
# peptide: AVFLGNPSNQK
# B43: SPVSASWIL (peptide)
# peptide: SPVSASWIL
# B44: SLATAISAK (peptide)
# peptide: SLATAISAK
# B45: KLLLLSSVK (peptide)
# peptide: KLLLLSSVK
# B46: SVISVLTTPK (peptide)
# peptide: SVISVLTTPK
# B47: GTFIAPVMK (peptide)
# peptide: GTFIAPVMK
# B48: LALLGAPPPK (peptide)
# peptide: LALLGAPPPK
# B49: AVVSHFILY (peptide)
# peptide: AVVSHFILY
# B50: MVNWSLTNK (peptide)
# peptide: MVNWSLTNK
# B51: AILAPPAILK (peptide)
# peptide: AILAPPAILK
# B52: IIVPSFYK (peptide)
# peptide: IIVPSFYK
# B53: RVIEVVMNSK (peptide)
# peptide: RVIEVVMNSK
# B54: LLFKGLMWK (peptide)
# peptide: LLFKGLMWK
# B55: ATNSFLLIK (peptide)
# peptide: ATNSFLLIK
# B56: AILVPQPPK (peptide)
# peptide: AILVPQPPK
# B57: RLYSGSSFLY (peptide)
# peptide: RLYSGSSFLY
# B58: TVTSAIVNR (peptide)
# peptide: TVTSAIVNR
# B59: LIYIPTNSIYK (peptide)
# peptide: LIYIPTNSIYK
# B60: TTAAVYILK (peptide)
# peptide: TTAAVYILK
# B61: ATLQAVTLYKK (peptide)
# peptide: ATLQAVTLYKK
# B62: GSLQTLPPK (peptide)
# peptide: GSLQTLPPK
# B63: ILAASFQAR (peptide)
# peptide: ILAASFQAR
# B64: ETYGTFVLR (peptide)
# peptide: ETYGTFVLR
# B65: SPLPHLGPL (peptide)
# peptide: SPLPHLGPL
# B66: STQSSLLYLK (peptide)
# peptide: STQSSLLYLK
# B67: GTVFVLLSK (peptide)
# peptide: GTVFVLLSK
# B68: VIYNQTLMK (peptide)
# peptide: VIYNQTLMK
# Assays:
# HLA-A*03:01 = biological target: T1, HLA-A*03:01 (human); test: UV peptide exchange, anti-b2m ELISA; exchange yield grade
# T1 construct: Peptide-receptive MHC class I monomer in the UV-ligand exchange assay
# From the text: (§1) Candidate peptides for T cell based therapies according to the present invention were further tested for their MHC binding capacity (affinity). The individual peptide-MHC complexes were produced by UV-ligand exchange, where a UV-sensitive peptide is cleaved upon UV-irradiation and exchanged with the peptide of interest as analyzed. Only peptide candidates that can effectively bind and stabilize the peptide-receptive MHC molecules prevent dissociation of the MHC complexes. To determine the yield of the exchange reaction, an ELISA was performed based on the detection of the light chain (β2m) of stabilized MHC complexes. The assay was performed as generally described in Rodenko et al. (Rodenko et al., 2006).
# (§2) 96 well MAXISorp plates (NUNC) were coated over night with 2 μg/ml streptavidin in PBS at room temperature, washed 4× and blocked for 1 h at 37° C. in 2% BSA containing blocking buffer. […] Peptide-MHC monomers of the UV-exchange reaction were diluted 100-fold in blocking buffer. Samples were incubated for 1 h at 37° C., washed four times, incubated with 2 μg/ml HRP conjugated anti-β2m for 1 h at 37° C., washed again and detected with TMB solution that is stopped with […]. Absorption was measured at 450 nm.
# HLA-B*07:02 = biological target: T2, HLA-B*07:02 (human); test: as above
# T2 construct: Peptide-receptive monomer in the UV-ligand exchange assay
# From the text: as §1, §2
Binder,peptide exchange yield (HLA-A*03:01),peptide exchange yield (HLA-B*07:02)
B1,≥ 75%,–
B2,≥ 75%,–
B3,50 to 75%,–
B4,≥ 75%,–
B5,50 to 75%,–
B6,50 to 75%,–
B7,≥ 75%,–
B8,≥ 75%,–
B9,20 to 50%,–
B10,–,≥ 75%
B11,≥ 75%,–
B12,≥ 75%,–
B13,≥ 75%,–
B14,≥ 75%,–
B15,50 to 75%,–
B16,–,50 to 75%
B17,≥ 75%,–
B18,–,≥ 75%
B19,≥ 75%,–
B20,≥ 75%,–
B21,–,50 to 75%
B22,50 to 75%,–
B23,50 to 75%,–

Binder,peptide exchange yield (HLA-A*03:01),peptide exchange yield (HLA-B*07:02)
B24,50 to 75%,–
B25,≥ 75%,–
B26,≥ 75%,–
B27,50 to 75%,–
B28,50 to 75%,–
B29,50 to 75%,–
B30,50 to 75%,–
B31,50 to 75%,–
B32,50 to 75%,–
B33,≥ 75%,–
B34,≥ 75%,–
B35,≥ 75%,–
B36,≥ 75%,–
B37,50 to 75%,–
B38,50 to 75%,–
B39,–,50 to 75%
B40,≥ 75%,–
B41,≥ 75%,–
B42,≥ 75%,–
B43,–,≥ 75%
B44,50 to 75%,–
B45,50 to 75%,–
B46,≥ 75%,–

Binder,peptide exchange yield (HLA-A*03:01),peptide exchange yield (HLA-B*07:02)
B47,≥ 75%,–
B48,20 to 50%,–
B49,50 to 75%,–
B50,≥ 75%,–
B51,≥ 75%,–
B52,50 to 75%,–
B53,≥ 75%,–
B54,≥ 75%,–
B55,≥ 75%,–
B56,50 to 75%,–
B57,≥ 75%,–
B58,50 to 75%,–
B59,≥ 75%,–
B60,50 to 75%,–
B61,≥ 75%,–
B62,50 to 75%,–
B63,50 to 75%,–
B64,50 to 75%,–
B65,–,50 to 75%
B66,50 to 75%,–
B67,20 to 50%,–
B68,≥ 75%,–
